Assay results: paper PMC4267655, “Brr2p carboxy-terminal Sec63 domain modulates Prp16 splicing RNA helicase” (Nucleic Acids Research, 2014)

B1: Prp16p (wild type), LexA-bait fusion [budding yeast] / Brr2 H2-Sec63-2p (wild type), Gal4AD-prey fusion [budding yeast] (parent complex)
chain 1: MGHSGREERIKDIFKELTSKELTPGLLLTLQKLAQKPNTNLEQFIASCKALTKLSSNNPIIFNELLELLKNKSEEDSTGPKKIAPSINKRKKFKIQLDLDDNEDELDSPVQKKPAPTRTLFKRIDKLKAKQLRQYSPTVKDPSPNSEQQTQNGHAETKDYEPTRSEVVEEDREWYDNDDDYGNLVPEPLSELPEEAKLLPVIRNIDNDDALRNTVQLYPIPLKQRMEWIPPFLSKFALENKVPTSIIIGSISETSSQVSALSMVNPFRNPDSEFSANAKRGSKLVALRRINMEHIQQSRDNTTVLNTAMGEVLGLENNNKAKDKSNQKICDDTALFTPSKDDIKHTKEQLPVFRCRSQLLSLIRENQVVVIIGETGSGKTTQLAQYLYEEGYANDRGKSIVVTQPRRVAAISVAKRVAMEMQVPLGKEVGYSIRFEDVTDSECTKLKFVTDGILLRETLLDDTLDKYSCVIIDEAHERSLNTDILLGFFKILLARRRDLKLIITSATMNAKKFSAFFGNAPQFTIPGRTFPVQTIYTSNPVQDYVEAAVSQAVKIHLANDCSSGDILIFMTGQEDIETTFDTLQEKFLQVYSKKFGTANFEEINDIEILPIYSALPADLQFKIFQDLHGTKRKIIIATNIAETSLTIKGIRYVIDCGYSKLKVYNPKIGLDSLVITPISKANADQRSGRAGRTAPGTAYRLYTEDTFKEDMYLQTIPEIQRTNLSNTLLLLKSLDVTDELSKFPFIDKPPLQTFLSSLYELWFIGAIDTSGQLTPLGLQMAKFPLQPSLSKILLIAVRNGCSDEMLTIVSMLSVPQVFYRPKERQKEADIARNKFFIAKSDHLTLLNVFEQWRANNFSSHWCNKHFVQYKSLVRARDIRDQLLTILKSQKIPVISSGKDWDIIKKCICSGFAHQAAKITGLRNYVHLKTGVSVQLHPTSALHGLGDLPPYVVYHELLMTSKEYICCVTSVDPFWLMEYGGLLYDIKRIKNDQEATTTGLFGEHYEHTLDKVEDDIDINIRRCKDMRDSVIQELKMTDNSNKEDKKQKTKKQNILNGKENSMKPFKRRKPFF
chain 2: MTEHETKDKAKKIREIYRYDEMSNKVLKVDKRFMNTSQNPQRDAEISQPKSMSGRISAKDMGQGLCNNINKGLKENDVAVEKTGKSASLKKIQQHNTILNSSSDFRLHYYPKDPSNVETYEQILQWVTEVLGNDIPHDLIIGTADIFIRQLKENEENEDGNIEERKEKIQHELGINIDSLKFNELVKLMKNITDYETHPDNSNKQAVAILADDEKSDEEEVTEMSNNANVLGGEINDNEDDDEEYDYNDVEVNSKKKNKRALPNIENDIIKLSDSKTSNIESVPIYSIDEFFLQRKLRSELGYKDTSVIQDLSEKILNDIETLEHNPVALEQKLVDLLKFENISLAEFILKNRSTIFWGIRLAKSTENEIPNLIEKMVAKGLNDLVEQYKFRETTHSKRELDSGDDQPQSSEAKRTKFSNPAIPPVIDLEKIKFDESSKLMTVTKVSLPEGSFKRVKPQYDEIHIPAPSKPVIDYELKEITSLPDWCQEAFPSSETTSLNPIQSKVFHAAFEGDSNMLICAPTGSGKTNIALLTVLKALSHHYNPKTKKLNLSAFKIVYIAPLKALVQEQVREFQRRLAFLGIKVAELTGDSRLSRKQIDETQVLVSTPEKWDITTRNSNNLAIVELVRLLIIDEIHLLHDDRGPVLESIVARTFWASKYGQEYPRIIGLSATLPNYEDVGRFLRVPKEGLFYFDSSFRPCPLSQQFCGIKERNSLKKLKAMNDACYEKVLESINEGNQIIVFVHSRKETSRTATWLKNKFAEENITHKLTKNDAGSKQILKTEAANVLDPSLRKLIESGIGTHHAGLTRSDRSLSEDLFADGLLQVLVCTATLAWGVNLPAHTVIIKGTDVYSPEKGSWEQLSPQDVLQMLGRAGRPRYDTFGEGIIITDQSNVQYYLSVLNQQLPIESQFVSKLVDNLNAEVVAGNIKCRNDAVNWLAYTYLYVRMLASPMLYKVPDISSDGQLKKFRESLVHSALCILKEQELVLYDAENDVIEATDLGNIASSFYINHASMDVYNRELDEHTTQIDLFRIFSMSEEFKYVSVRYEEKRELKQLLEKAPIPIREDIDDPLAKVNVLLQSYFSQLKFEGFALNSDIVFIHQNAGRLLRAMFEICLKRGWGHPTRMLLNLCKSATTKMWPTNCPLRQFKTCPVEVIKRLEASTVPWGDYLQLETPAEVGRAIRSEKYGKQVYDLLKRFPKMSVTCNAQPITRSVMRFNIEIIADWIWDMNVHGSLEPFLLMLEDTDGDSILYYDVLFITPDIVGHEFTLSFTYELKQHNQNNLPPNFFLTLISENWWHSEFEIPVSFNGFKLPKKFPPPTPLLENISISTSELGNDDFSEVFEFKTFNKIQSQVFESLYNSNDSVFVGSGKGTGKTAMAELALLNHWRQNKGRAVYINPSGEKIDFLLSDWNKRFSHLAGGKIINKLGNDPSLNLKLLAKSHVLLATPVQFELLSRRWRQRKNIQSLELMIYDDAHEISQGVYGAVYETLISRMIFIATQLEKKIRFVCLSNCLANARDFGEWAGMTKSNIYNFSPSERIEPLEINIQSFKDVEHISFNFSMLQMAFEASAAAAGNRNSSSVFLPSRKDCMEVASAFMKFSKAIEWDMLNVEEEQIVPYIEKLTDGHLRAPLKHGVGILYKGMASNDERIVKRLYEYGAVSVLLISKDCSAFACKTDEVIILGTNLYDGAEHKYMPYTINELLEMVGLASGNDSMAGKVLILTSHNMKAYYKKFLIEPLPTESYLQYIIHDTLNNEIANSIIQSKQDCVDWFTYSYFYRRIHVNPSYYGVRDTSPHGISVFLSNLVETCLNDLVESSFIEIDDTEAEVTAEVNGGDDEATEIISTLSNGLIASHYGVSFFTIQSFVSSLSNTSTLKNMLYVLSTAVEFESVPLRKGDRALLVKLSKRLPLRFPEHTSSGSVSFKVFLLLQAYFSRLELPVDFQNDLKDILEKVVPLINVVVDILSANGYLNATTAMDLAQMLIQGVWDVDNPLRQIPHFNNKILEKCKEINVETVYDIMALEDEERDEILTLTDSQLAQVAAFVNNYPNVELTYSLNNSDSLISGVKQKITIQLTRDVEPENLQVTSEKYPFDKLESWWLVLGEVSKKELYAIKKVTLNKETQQYELEFDTPTSGKHNLTIWCVCDSYLDADKELSFEINVK

Variants of: B1
Test: Y2H interaction assay; growth on -LWH medium with 3-AT; parent: 50 nM

| screen value | Variant |
| --- | --- |
| 50 mM | chain 1 L335F |
| 0 mM | chain 1 R456K, chain 1 G691R |
| 50 mM | chain 1 D473E |
| 50 mM | chain 1 K379R |
| 50 mM | chain 1 Q685H |
| 50 mM | chain 1 T507A |
| 50 mM | chain 1 H476D |
| 50 mM | chain 1 R686Q |
| 0 mM | chain 1 R686I |

Variants of: B1
Test: as above
Remark: another data set of the same source

| screen value | Variant |
| --- | --- |
| 150 mM | chain 2 R1899G |
| 0 mM | chain 2 L1951P |
